The values below come from paper PMC2119541.

Some targets named below: collagen type III (UniProt P02461); collagen type IV (UniProt P02462); collagen type IX (UniProt P20849); collagen type V (UniProt P20908).
Test in all cases: radioligand binding
The target in assay [1] is Englebreth-Holm sarcoma laminin (UniProt P19137).
Assay [2] deals with laminin and collagen type IV (isotonic conditions with Ca2+).

Values joined by “and” are separate entries in the source; they are usually repeats but may differ in a detail not shown here. Equal entries are not always repeated.

Sequence of UniProt P02461 (P02461 24-1221): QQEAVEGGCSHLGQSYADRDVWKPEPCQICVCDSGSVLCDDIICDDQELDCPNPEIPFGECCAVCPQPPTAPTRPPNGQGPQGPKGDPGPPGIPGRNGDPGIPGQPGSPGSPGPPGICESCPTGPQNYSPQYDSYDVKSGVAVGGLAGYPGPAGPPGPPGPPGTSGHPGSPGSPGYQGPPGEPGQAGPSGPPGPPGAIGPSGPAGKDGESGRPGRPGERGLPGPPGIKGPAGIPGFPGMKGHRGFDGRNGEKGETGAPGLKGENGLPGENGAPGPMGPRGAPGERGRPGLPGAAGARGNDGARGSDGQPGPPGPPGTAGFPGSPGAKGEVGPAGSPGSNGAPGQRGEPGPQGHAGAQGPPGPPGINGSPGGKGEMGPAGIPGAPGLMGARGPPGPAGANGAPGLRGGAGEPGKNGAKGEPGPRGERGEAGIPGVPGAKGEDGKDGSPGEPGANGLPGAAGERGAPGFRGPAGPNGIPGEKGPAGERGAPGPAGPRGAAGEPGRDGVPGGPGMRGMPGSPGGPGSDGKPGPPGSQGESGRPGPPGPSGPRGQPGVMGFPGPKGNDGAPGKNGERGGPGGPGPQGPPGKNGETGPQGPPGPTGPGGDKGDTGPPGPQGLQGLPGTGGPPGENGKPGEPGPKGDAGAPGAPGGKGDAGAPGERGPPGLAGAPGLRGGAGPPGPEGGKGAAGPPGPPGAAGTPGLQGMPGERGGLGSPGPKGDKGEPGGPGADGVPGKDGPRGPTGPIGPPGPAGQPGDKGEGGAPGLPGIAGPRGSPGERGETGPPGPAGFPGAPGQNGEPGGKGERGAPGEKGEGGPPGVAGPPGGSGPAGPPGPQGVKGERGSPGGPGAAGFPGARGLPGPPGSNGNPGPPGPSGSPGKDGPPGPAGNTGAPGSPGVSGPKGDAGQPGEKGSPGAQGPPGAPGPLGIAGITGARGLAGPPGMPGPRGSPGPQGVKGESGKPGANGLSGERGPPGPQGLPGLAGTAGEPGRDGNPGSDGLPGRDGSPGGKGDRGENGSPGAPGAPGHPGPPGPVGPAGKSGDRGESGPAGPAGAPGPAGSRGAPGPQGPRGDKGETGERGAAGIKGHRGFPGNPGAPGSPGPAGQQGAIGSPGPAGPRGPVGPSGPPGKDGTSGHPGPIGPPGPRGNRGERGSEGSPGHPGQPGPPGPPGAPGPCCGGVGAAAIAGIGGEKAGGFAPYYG
Sequence of UniProt P20908 (P20908 38-1605, chain 1 of 2): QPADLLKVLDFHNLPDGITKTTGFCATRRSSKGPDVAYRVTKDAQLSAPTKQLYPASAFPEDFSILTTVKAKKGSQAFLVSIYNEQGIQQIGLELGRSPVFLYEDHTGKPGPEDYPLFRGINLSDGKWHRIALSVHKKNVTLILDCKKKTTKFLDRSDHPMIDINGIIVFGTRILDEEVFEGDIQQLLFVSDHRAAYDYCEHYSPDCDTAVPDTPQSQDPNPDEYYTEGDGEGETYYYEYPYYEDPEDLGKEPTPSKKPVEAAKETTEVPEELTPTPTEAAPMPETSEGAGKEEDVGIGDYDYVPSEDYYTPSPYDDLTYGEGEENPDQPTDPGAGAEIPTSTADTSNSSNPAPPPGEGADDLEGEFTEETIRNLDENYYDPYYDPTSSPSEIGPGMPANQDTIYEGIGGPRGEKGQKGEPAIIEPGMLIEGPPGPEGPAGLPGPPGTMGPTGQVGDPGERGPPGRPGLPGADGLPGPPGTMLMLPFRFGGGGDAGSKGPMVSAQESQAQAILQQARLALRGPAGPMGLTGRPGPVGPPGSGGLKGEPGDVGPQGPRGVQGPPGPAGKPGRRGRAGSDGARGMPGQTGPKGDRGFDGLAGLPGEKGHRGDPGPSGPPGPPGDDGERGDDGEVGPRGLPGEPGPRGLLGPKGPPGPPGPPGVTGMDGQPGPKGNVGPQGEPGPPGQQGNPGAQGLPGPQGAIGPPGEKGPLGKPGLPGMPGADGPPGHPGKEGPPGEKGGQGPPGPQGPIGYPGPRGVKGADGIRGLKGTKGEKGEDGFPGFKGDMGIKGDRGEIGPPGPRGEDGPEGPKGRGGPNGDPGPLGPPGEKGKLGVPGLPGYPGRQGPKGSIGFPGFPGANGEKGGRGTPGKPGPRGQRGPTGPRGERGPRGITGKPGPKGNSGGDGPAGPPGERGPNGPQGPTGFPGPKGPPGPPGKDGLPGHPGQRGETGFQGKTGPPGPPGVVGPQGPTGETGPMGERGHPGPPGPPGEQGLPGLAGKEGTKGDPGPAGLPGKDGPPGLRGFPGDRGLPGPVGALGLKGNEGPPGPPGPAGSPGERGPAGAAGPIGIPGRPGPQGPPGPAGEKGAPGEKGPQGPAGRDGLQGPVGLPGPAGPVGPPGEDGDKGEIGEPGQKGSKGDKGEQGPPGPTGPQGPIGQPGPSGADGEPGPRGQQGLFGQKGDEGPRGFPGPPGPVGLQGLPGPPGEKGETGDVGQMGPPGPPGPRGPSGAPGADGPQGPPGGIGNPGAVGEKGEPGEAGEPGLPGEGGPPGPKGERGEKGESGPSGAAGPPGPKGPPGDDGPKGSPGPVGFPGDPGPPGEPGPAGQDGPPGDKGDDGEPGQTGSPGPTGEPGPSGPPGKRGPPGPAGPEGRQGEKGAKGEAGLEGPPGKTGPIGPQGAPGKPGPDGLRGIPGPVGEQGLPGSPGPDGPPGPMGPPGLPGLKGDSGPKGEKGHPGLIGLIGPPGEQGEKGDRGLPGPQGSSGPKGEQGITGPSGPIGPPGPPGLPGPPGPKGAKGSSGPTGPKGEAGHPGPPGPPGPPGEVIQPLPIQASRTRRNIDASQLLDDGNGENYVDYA
Sequence of UniProt P20908 (P05997 27-1229, chain 2 of 2, further chain): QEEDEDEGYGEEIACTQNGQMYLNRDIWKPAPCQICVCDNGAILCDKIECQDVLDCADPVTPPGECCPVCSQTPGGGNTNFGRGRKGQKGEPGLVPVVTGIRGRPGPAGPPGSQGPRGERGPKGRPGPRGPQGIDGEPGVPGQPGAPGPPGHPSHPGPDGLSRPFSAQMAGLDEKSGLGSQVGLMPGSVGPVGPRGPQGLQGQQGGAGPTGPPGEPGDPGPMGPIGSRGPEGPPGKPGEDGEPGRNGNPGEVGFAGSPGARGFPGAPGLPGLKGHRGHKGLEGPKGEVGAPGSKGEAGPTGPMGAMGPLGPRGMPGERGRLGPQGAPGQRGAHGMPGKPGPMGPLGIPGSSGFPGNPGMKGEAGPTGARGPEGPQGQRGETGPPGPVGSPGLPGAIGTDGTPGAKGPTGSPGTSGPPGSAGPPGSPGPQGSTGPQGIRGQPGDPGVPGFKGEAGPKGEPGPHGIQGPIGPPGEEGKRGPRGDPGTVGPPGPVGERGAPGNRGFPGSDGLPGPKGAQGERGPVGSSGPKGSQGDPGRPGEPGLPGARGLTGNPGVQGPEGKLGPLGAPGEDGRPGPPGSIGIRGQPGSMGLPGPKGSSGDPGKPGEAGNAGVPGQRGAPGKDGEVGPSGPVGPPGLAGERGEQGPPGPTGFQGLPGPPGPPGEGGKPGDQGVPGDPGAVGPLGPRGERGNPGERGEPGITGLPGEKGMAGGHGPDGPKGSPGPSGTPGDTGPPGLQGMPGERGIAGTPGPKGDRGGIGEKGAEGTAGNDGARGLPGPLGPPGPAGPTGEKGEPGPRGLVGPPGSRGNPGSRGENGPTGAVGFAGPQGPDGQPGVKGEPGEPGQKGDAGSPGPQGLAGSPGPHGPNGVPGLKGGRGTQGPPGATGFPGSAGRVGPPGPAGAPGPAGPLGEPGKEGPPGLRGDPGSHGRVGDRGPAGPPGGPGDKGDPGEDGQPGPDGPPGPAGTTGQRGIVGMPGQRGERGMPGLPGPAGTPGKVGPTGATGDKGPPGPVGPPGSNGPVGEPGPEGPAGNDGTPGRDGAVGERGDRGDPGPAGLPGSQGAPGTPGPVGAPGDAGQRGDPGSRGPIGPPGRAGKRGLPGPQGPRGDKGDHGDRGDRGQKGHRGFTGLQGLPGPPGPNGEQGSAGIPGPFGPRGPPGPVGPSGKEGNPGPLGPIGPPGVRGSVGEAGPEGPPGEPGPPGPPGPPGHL

Take astrochondrin (natural protein): the fold binding over binding to BSA in assay [1] was 3.5 fold; in the assay with collagen type III it was 10 fold; with collagen type IV, less than 7 fold; with collagen type IX it was less than 7 fold; with collagen type V it was 10 fold; in assay [2], 5 fold and 7 fold. Also, the percent of the total input bound in assay [1] is 15%; in the assay with collagen type III, less than 80%; with collagen type IV, 30%; with collagen type IX, 30%; with collagen type V, less than 80%. Moreover, the percent of the added astrochondrin bound in the assay with collagen type III and in the assay with collagen type V was less than 40% throughout. Further, the percent of the total input bound at 15 mM NaCl with collagen type III and with collagen type V was 30% in each case.
